Test results published in the supplement of paper PMC11811203.

B1: THAP1; numbered along this chain (parent)
chain: MVQSCSAYGCKNRYDKDKPVSFHKFPLTRPSLCKEWEAAVRRKNFKPTKYSSICSEHFTPDCFKRECNNKLLKENAVPTIFLCTEPHDKKEDLLEPQEQLPPPPLPPPVSQVDAAIGLLMPPLQTPVNLSVFCDHNYTVEDTMHQRKRIHQLEQQVEKLRKKLKTAQQRCRRQERQLEKLKEVVHFQKEKDDVSERGYVILPNDYFEIVEVPA

Variants of: B1
Test: THAP1 transcriptional activity (GFP+/GFP- enrichment relative to wild-type constructs) (ratio to WT); higher = more THAP1 activity (PSMB5 reporter activation)
Conditions: with PSMB5 promoter-GFP reporter
Procedure, shortened: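 Variants were counted by Illumina sequencing of genomic DNA amplicons from BFP+ cells sorted into GFP-bright and GFP-dim bins five days after lentiviral transduction, in duplicate at MOI ~0.3. The library changed each of residues 2–213 of human THAP1 to all 20 amino acids and was introduced into THAP1-knockout HEK-293T cells with mClover3 knocked in at endogenous PSMB5. Activity equals the replicate-mean bright/dim read fold change over the mean of wild-type synonymous constructs.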

THAP1 transcriptional activity: each site, then its substitutions
E153: V 0.395 | I 0.393 | T 0.774 | N 0.512 | Y 0.404 | S 0.631 | M 0.461 | R 0.491 | G 0.412 | Q 0.585 | K 0.513 | C 0.315 | W 0.268
N136: P 0.263 | S 0.345 | T 0.311 | D 0.153 | F 0.279 | V 0.0965 | Q 0.102 | M 0.134 | H 0.131 | W 0.0779 | C 0.164 | R 0.364 | G 0.109 | K 0.142 | Y 0.187 | L 0.102 | A 0.208 | I 0.149 | E 0.14
T142: H 0.658 | F 0.386 | N 0.392 | R 0.576 | I 0.34 | E 1.23 | Q 0.756 | K 0.964 | Y 0.248 | C 0.803 | M 0.188 | D 0.738 | G 0.864 | A 0.581 | V 0.403 | P 0.997 | W 0.266 | S 0.66 | L 0.587
R146: S 1 | I 0.358 | D 0.548 | Y 0.539 | A 0.79 | N 0.584 | W 0.39 | Q 0.849 | F 0.489 | M 0.595 | P 0.535
T138: R 0.375 | D 0.306 | W 0.363 | V 0.728 | M 0.238 | C 2.63 | H 0.837 | P 0.286 | K 0.191 | G 0.526 | Q 0.224 | E 0.215 | F 0.626 | L 0.13 | I 0.274 | A 2.41 | Y 0.424 | S 1.07 | N 0.196
Q155: H 0.765 | S 0.563 | T 0.609 | M 0.674 | D 0.521 | Y 0.71 | P 0.175 | N 0.447 | K 0.749 | R 0.65 | W 0.376 | I 0.473 | C 0.531 | V 0.773
Y137: I 0.109 | N 0.195 | G 0.161 | A 0.0848 | V 0.0934 | P 0.117 | W 0.0825 | M 0.114 | C 0.147 | L 0.167 | R 0.214 | K 0.211 | T 0.136 | D 0.172 | E 0.152 | S 0.137 | Q 0.186 | F 0.161 | H 0.111
K147: D 0.605 | I 0.346 | V 0.383 | S 0.621 | N 0.976 | Y 0.522 | W 0.458 | H 0.438 | P 0.502 | R 0.9 | F 0.361 | E 0.626 | A 0.537 | M 0.271 | G 0.51 | L 0.458 | T 0.664
Q151: V 0.675 | T 0.796 | L 0.804 | N 0.636 | A 0.791 | G 0.864 | I 0.817 | S 0.793 | C 0.782 | E 0.7 | R 1.12 | P 0.303 | M 0.894
M143: P 1.2 | S 0.971 | I 0.679 | L 0.725 | W 0.719 | F 0.339 | V 1.09 | H 0.575 | Y 0.547 | K 0.848 | G 1.05 | E 0.983 | R 0.991 | T 1.19 | C 1.09 | A 0.634 | Q 0.669 | N 0.961 | D 1.76
D141: N 0.776 | T 0.642 | M 0.395 | I 0.309 | L 0.286 | S 0.634 | E 1.51 | H 0.514 | A 0.37 | P 0.986 | W 0.255 | V 0.352 | F 0.552 | C 0.355 | R 0.588 | K 0.927 | Q 0.581 | Y 0.644 | G 0.809
H144: V 0.388 | N 0.686 | M 0.509 | Q 0.814 | Y 0.802 | E 0.421 | G 1.11 | F 0.637 | D 0.747 | C 0.498 | S 0.747 | P 0.334 | A 1.5 | W 0.56 | T 0.4 | K 0.954 | R 0.709
R148: K 1.02 | G 0.324 | N 0.303 | W 0.179 | F 0.196 | V 0.412 | C 0.26 | L 0.312 | D 0.202 | T 0.312 | E 0.167 | Q 0.425 | M 0.261 | P 0.18 | A 0.487
E140: A 1.46 | I 1.08 | Q 1.61 | K 4.18 | L 1.81 | W 1.1 | V 1.01 | N 1.33 | F 1.16 | M 1.04 | D 0.727 | C 0.908 | G 2.94 | T 1.57 | S 1.48 | H 0.784 | P 3.02 | R 1.3 | Y 1.16
V156: A 0.555 | C 0.708 | D 0.153 | E 0.213
Q145: D 0.415 | Y 0.618 | F 0.716 | L 0.544 | P 0.652 | M 0.767 | A 1.08 | T 1.05 | W 0.755 | C 0.357 | S 0.592 | V 0.59 | N 0.719 | K 0.783 | G 0.569 | I 0.448 | H 0.747 | E 0.577 | R 0.646
V139: Q 0.576 | R 0.938 | F 0.996 | G 0.378 | I 0.897 | L 1.18 | E 0.369 | A 0.763 | Y 0.59 | T 0.34 | S 0.407 | W 0.454 | D 0.0939 | P 0.163 | H 0.721 | M 1.22 | C 0.724 | K 1.41
H150: L 0.769 | N 0.896 | Y 0.767 | I 0.713 | C 0.635 | M 1.09 | D 0.609 | E 0.884 | A 1 | G 0.721 | P 0.317 | W 0.976 | V 1.1 | Q 1.21 | R 1.19
H135: V 0.227 | W 0.177 | T 0.111 | S 0.182 | Y 0.217
I149: G 0.197 | D 0.218 | H 0.248 | Q 0.327 | Y 0.445 | C 0.454 | K 0.403 | N 0.465 | R 0.245 | F 0.539 | E 0.225 | W 0.164
L152: A 0.28 | C 0.209 | S 0.211 | D 0.195 | R 0.306 | P 0.177 | H 0.215 | N 0.287 | I 0.29 | E 0.227 | W 0.246 | F 0.236 | K 0.189 | Q 0.191 | M 0.249 | V 0.213 | G 0.249
Q154: E 0.776 | M 1.17 | I 0.779 | W 0.539 | A 1.06 | G 0.732 | L 0.867 | V 0.661 | R 0.653 | D 0.962 | S 1.24
